B1: Merlin (Homo sapiens), P35240-3 (parent)
chain: MAGAIASRMSFSSLKRKQPKTFTVRIVTMDAEMEFNCEMKWKGKDLFDLVCRTLGLRETWFFGLQYTIKDTVAWLKMDKKVLDHDVSKEEPVTFHFLAKFYPENAEEELVQEITQHLFFLQVKKQILDEKIYCPPEASVLLASYAVQAKYGDYDPSVHKRGFLAQEELLPKRVINLYQMTPEMWEERITAWYAEHRGRARDEAEMEYLKIAQDLEMYGVNYFAIRNKKGTELLLGVDALGLHIYDPENRLTPKISFPWNEIRNISYSDKEFTIKPLDKKIDVFKFNSSKLRVNKLILQLCIGNHDLFMRRRKADSLEVQQMKAQAREEKARKQMERQRLAREKQMREEAERTRDELERRLLQMKEEATMANEALMRSEETADLLAEKAQITEEEAKLLAQKAAEAEQEMQRIKATAIRTEEEKRLMEQKVLEAEVLALKMAEESERRAKEADQLKQDLQEAREAERRAKQKLLEIATKPTYPPMNPIPAPLPPDIPSFNLIGDSLSFDFKDTDMKRLSMEIEKEKVEYMEKSKHLQEQLNELKTEIEALKLKERETALDILHNENSDRGGSSKHNTIKKPQAQGRRPICI

Tests used:
HGS, O14964-1 = variants of: B1; details: with HGS
HGS, O14964-1, sequence (O14964 whole entry): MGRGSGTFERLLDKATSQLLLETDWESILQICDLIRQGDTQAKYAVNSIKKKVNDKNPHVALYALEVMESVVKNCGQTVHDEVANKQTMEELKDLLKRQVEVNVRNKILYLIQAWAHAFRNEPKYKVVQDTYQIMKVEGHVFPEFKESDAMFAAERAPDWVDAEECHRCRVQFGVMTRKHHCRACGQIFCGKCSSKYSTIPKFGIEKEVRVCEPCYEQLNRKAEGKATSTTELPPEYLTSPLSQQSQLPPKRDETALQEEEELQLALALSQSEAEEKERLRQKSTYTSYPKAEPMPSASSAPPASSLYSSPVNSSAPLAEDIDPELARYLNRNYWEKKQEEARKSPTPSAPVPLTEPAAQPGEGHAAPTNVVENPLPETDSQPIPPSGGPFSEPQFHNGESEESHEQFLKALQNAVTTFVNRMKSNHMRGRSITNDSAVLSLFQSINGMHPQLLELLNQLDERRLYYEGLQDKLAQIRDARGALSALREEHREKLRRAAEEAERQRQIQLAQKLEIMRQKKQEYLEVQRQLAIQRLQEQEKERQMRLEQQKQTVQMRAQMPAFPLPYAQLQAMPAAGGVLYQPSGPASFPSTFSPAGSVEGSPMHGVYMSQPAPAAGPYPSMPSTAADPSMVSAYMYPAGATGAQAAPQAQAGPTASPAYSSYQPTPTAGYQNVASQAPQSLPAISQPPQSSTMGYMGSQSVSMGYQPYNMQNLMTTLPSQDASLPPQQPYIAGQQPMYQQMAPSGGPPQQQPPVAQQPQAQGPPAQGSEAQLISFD

HGS, O14964-2 = variants of: B1; details: with HGS
HGS, O14964-2, sequence (O14964 other isoform, or with tags, fused parts or gaps): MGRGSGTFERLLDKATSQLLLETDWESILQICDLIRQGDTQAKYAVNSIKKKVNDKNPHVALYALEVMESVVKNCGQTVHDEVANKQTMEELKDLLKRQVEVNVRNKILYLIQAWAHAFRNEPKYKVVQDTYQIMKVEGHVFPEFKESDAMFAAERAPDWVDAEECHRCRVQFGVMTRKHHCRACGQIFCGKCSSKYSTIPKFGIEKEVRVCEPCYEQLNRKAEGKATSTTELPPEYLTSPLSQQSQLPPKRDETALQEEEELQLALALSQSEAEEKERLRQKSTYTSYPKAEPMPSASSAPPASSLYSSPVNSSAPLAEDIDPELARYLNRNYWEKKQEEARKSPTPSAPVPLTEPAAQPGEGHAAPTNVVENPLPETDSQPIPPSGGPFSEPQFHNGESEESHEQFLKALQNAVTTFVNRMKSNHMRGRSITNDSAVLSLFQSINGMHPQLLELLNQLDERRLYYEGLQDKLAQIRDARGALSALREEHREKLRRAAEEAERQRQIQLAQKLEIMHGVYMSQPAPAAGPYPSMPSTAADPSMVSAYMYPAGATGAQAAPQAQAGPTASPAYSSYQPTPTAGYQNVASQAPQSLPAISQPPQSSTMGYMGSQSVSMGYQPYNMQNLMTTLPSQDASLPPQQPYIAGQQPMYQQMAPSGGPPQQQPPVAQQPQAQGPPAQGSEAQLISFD

Row | effect of a mutation on the interaction (HGS, O14964-1) | effect of a mutation on the interaction (HGS, O14964-2) | Variant
1 | decreasing interaction strength | decreasing interaction strength | L46R
2 | decreasing interaction strength | decreasing interaction strength | L535P
3 | decreasing interaction strength | decreasing interaction strength | Q538P
4 | decreasing interaction strength | decreasing interaction strength | L360P

Reference: IntAct's records for PubMed 10861283
